Assay results from the supplement of paper PMC11865577.

Key:
Test in all cases: pull-down binding Z-score (relative to library population); higher = stronger binding
Settings in all cases: RNA library: Library-2
[1] = test system: TO-N3-2 (biotin conjugate)
Method in brief: (§1)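 Heat-folded RNA library (1 μg, Cy5 or Cy3 end label, phosphate/NaCl/KCl buffer) was captured for 60 min at 25 °C on streptavidin beads displaying 100 pmol of biotin-conjugated small molecule, then washed three times. The bound fraction, eluted in hot SDS, was hybridised to a DNA barcode microarray at 55.5 °C for 20 h. Z-scores for binding were taken against the library mean and standard deviation after beads-only subtraction and trimmed averaging of replicate barcoded probes.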

[2] = test system: TO-3-N3-2 (biotin conjugate)
Method in brief: as §1

[3] = test system: TO-3-N3 (biotin conjugate)
Method in brief: as §1

TO-N3 (biotin conjugate) = test system: TO-N3 (biotin conjugate)
Method in brief: as §1

Row | Sequence | pull-down binding Z-score [1] | pull-down binding Z-score [2] | pull-down binding Z-score [3] | pull-down binding Z-score (TO-N3 (biotin conjugate))
1 | UAGGUUUUUCUACAGGUGUUAACCUA [SHAPE_invitro_SARS-CoV-2_Motif_336] | -0.856 | -0.426 | -0.603 | -0.981
2 | CUAACAUGCUUAG [SHAPE_invitro_SARS-CoV-2_Motif_280] | -0.734 | -0.299 | 0.709 | 0.578
3 | ACAGGAGUCACCUUUUGU [SHAPE_invitro_SARS-CoV-2_Motif_112] | -0.669 | -0.599 | -0.709 | -0.78
4 | AUGAGGUUUAGAAGAGCUUUUGGUGAAUACAGUCAUGUAGUUGCCUUUAAUACUUUACUAUUCCUUAU | -0.689 | 0.205 | -0.216 | -0.296
5 | CUGGAAUUGCCGUUUUAG [SHAPE_invivo_SARS-CoV-2_Motif_210] | -0.115 | -0.112 | 0.0793 | -0.0237
6 | ACCUUGAAGGAAAACAGGGU | -0.135 | 0.457 | 0.525 | 0.58
7 | GGGAGAUUAAUGGUCCU [IAV_invivo_PB2_1_Motif_25+IAV_invivo_PB2_1_Motif_25] | 0.225 | 0.00669 | 0.341 | 0.327
8 | ACAAGAGGGUGUGGUUGAUUAUGGUGCUAGAUUUUACUUUUACACCAGUAAAACAACUGUAGCGUCACUUAUCAACACACUUAACGAUCUAAAUGAAACUCUUGU | 0.277 | 0.984 | 0.233 | 0.447
9 | GGCAUCAUAUGGGUUGCAACUGAGGGAGCCUUGAAUACACCAAAAGAUCACAUUGGCACCCGCAAUCCUGCUAACAAUGCU [DMSMaPseq_invitro_SARS-CoV-2_Motif_513] | 0.342 | -0.241 | -0.63 | -0.253
10 | GAUUUUGGGACUACCAACUC | -0.581 | -0.384 | -0.579 | -0.683
11 | ACAGAUCUUUACCAGGAGUUUUCUGU | -1.3 | -0.827 | -0.933 | -1.28
12 | GAUUAUUACAGAUC [DMSMaPseq_invitro_SARS-CoV-2_Motif_169] | -1.16 | -0.191 | -0.377 | -0.695
13 | GGCCUCACGGCC [IAV_invivo_PB1_2_Motif_9+IAV_invivo_PB1_2_Motif_9] | -0.914 | -0.354 | 0.0835 | -0.332
14 | UGGAGGAAUACAAAUCCA [SHAPE_invitro_SARS-CoV-2_Motif_386] | -0.404 | 0.00658 | 0.291 | 0.109
15 | GAUUUGUCUUCUACAAUUUGCCUAUGCCAACAGGAAUAGGUUUUUGUAUAUAAUUAAGUUAAUUUUCCUCUGGCUGUUAUGGCCAGUAACUUUAGCUUGUUU | -0.904 | -0.102 | -0.15 | -0.372
16 | UCAAUUAUUAUAAGAAAGUUGA | -0.425 | -0.0592 | 0.154 | 0.0296
17 | ACCAGGAGUUUUCUGUGGUGUAGAUGCUGUAAAUUUACUUACUAAUAUGUUUACACCACUAAUUCAACCUAUUGGU [SHAPE_invitro_SARS-CoV-2_Motif_181] | -0.878 | -0.13 | -0.0454 | -0.0352
18 | CUGCAGAUGCAG [IAV_invivo_HA_4_Motif_2+IAV_invivo_HA_4_Motif_2] | -1.28 | -0.317 | -0.112 | -0.419
19 | GAUGGCACUUGUGGCUUAGUAGAAGUUGAAAAAGGCGUUUUGCCUCAACUUGAACAGCCCUAUGUGUUCAUC | 0.432 | -0.0725 | -0.665 | -0.48
20 | CUGGGGGCAAUCAGUUUCUGG [IAV_invivo_HA_4_Motif_20+IAV_invivo_HA_4_Motif_20] | -0.107 | -0.0228 | 1.05 | 0.946
21 | GAAAAGAACAAUCAAGGGUACACACCACUGGUUGUUACUCACAAUUUUGACUUCACUUUUAGUUUUAGUCCAGAGUACUCAAUGGUCUUUGUUCUUUUU | 0.0117 | -0.0313 | -0.824 | -0.121
22 | CUGUCCAAGACAUGUGAUCUGCACCUCUGAAGACAUGCUUAACCCUAAUUAUGAAGAUUUACUCAUUCGUAAGUCUAAUCAUAAUUUCUUGGUACAG | -0.0124 | -0.739 | -0.274 | -0.347
23 | GGCCAGCAGAGGCC [IAV_invivo_PA_3_Motif_7+IAV_invivo_PA_3_Motif_7] | -0.109 | 0.0485 | 0.905 | 0.703
24 | GUGAAUUCAACAU [DMSMaPseq_invitro_SARS-CoV-2_Motif_308] | -0.524 | -0.213 | -0.238 | -0.428
25 | UAGUGAUGAAGUUGCGAGAGACUUGUCACUA | -0.661 | -0.441 | -0.736 | -0.688
26 | CACUUAUCUUAGCCUACUGUAAUAAGACAGUAGGUGAGUUAGGUG | -1.07 | -0.273 | -0.861 | -1.2
27 | GUUACGACUAUUGUAUACCUUACAAUAGUGUAAC | 0.142 | 0.229 | 0.593 | 0.531

Row | Sequence | pull-down binding Z-score [1] | pull-down binding Z-score [2] | pull-down binding Z-score [3] | pull-down binding Z-score (TO-N3 (biotin conjugate))
28 | UGAUGCAGCCAUGCAACGUAAGUUGGAAAAGAUGGCUGAUCA | -0.974 | -0.36 | -1.03 | -1.16
29 | AAUCAAAAAGAGUUGAUU [DMSMaPseq_invitro_SARS-CoV-2_Motif_439] | -1.22 | -0.434 | -0.396 | -0.416
30 | GUAAGAGAAUUCCUUAC | -0.727 | -0.0559 | -0.366 | -0.531
31 | GUCUUACACCGUGCGGCACAGGCACUAGUACUGAUGUCGUAUACAGGGCUUUUGAC [DMSMaPseq_invitro_SARS-CoV-2_Motif_242] | 0.217 | 0.0142 | -0.0912 | 0.173
32 | UCUAACUUUAGAGUCCAACCAACAGAAUCUAUUGUUAGA | -0.918 | -0.138 | 0.171 | -0.148
33 | CAUUACUUUAUGAUG [SHAPE_invitro_SARS-CoV-2_Motif_468] | -1.02 | -0.259 | 0.168 | -0.055
34 | AUGCUGUUACAGCGU | -1.07 | -0.512 | -0.973 | -1.35
35 | CACAGAAAAGUACUGUG [SHAPE_invivo_SARS-CoV-2_Motif_52] | -0.279 | 0.427 | 1.15 | 0.891
36 | GGCCUGGGCCUGGGCCUGGGCCUGGGCCUGGGCCUG [r(GGCCUG)6] | 0.12 | -0.435 | 0.00804 | -0.184
37 | UAGAAUAGACGGUGACAUGGUACCACAUAUAUCACGUCAACGUCUUACUA [SHAPE_invivo_SARS-CoV-2_Motif_261] | -0.953 | -0.164 | -0.605 | -0.562
38 | AACAGCAGACAACCCUUAAGGGUGUAGAAGCUGUU | -0.918 | -0.692 | -0.872 | -1.19
39 | GCUGGCCUUGAAGCCCCUUUUCUCUAUCUUUAUGCUUUAGUCUACUUCUUGCAGAGUAUAAACUUUGUAAGAAUAAUAAUGAGGCUUUGGCUUUGC | -0.575 | -0.413 | -0.79 | -0.969
40 | CGAGUCUCUGAAACUCUACAGAGAUUCG [IAV_invivo_NS1_NEP_8_Motif_12+IAV_invivo_NS1_NEP_8_Motif_12] | -0.636 | -0.606 | -1 | -0.524
41 | GGAAGAGACAGGUACGUUAAUAGUUAAUAGCGUACUUCUUUUUC | -0.494 | -0.193 | -0.226 | -0.585
42 | GCGCGGCCAGAAACUGGCGGCGC [mismatch-GG] | -0.598 | -0.302 | -0.0922 | -0.309
43 | GGUUGGGAAAUUGUUAAAUUUAUCUCAACC | -0.802 | -0.155 | -0.472 | -0.616
44 | CAUGUGGUAGUGUUGGUUUUAACAUAGAUUAUGACUGUGUCUCUUUUUGUUACAUGCACCAUAUG | -0.00779 | 0.0495 | 1.54 | 1.48
45 | GCGCUGCCAGAAACUGGCCCAGCGC [bulge-CC] | 0.352 | -0.288 | -0.161 | -0.282
46 | GGAUGGUCUUCAAUCC [IAV_invivo_PB1_2_Motif_23+IAV_invivo_PB1_2_Motif_23] | -0.515 | -0.137 | -0.481 | -0.47
47 | UCCUAUUUCUGAACAUGACUACCAGAUUGGUGGUUAUACUGAAAAAUGGGA | -0.953 | -0.375 | 0.1 | 0.012
48 | AAACUCAAACCCGUCCUUGAUUGGCUUGAAGAGAAGUUUAAGGAAGGUGUAGAGUUU | -0.346 | 0.119 | -0.653 | -0.588
49 | UGUGUGAUAUCAGACA | -0.597 | -0.703 | -0.5 | -0.639
50 | CAGACUUUAUGAGUGUCUCUAUAGAAAUAGAGAUGUUGACACAGACUUUGUGAAUGAGUUUUACGCAUAUUUGCGUAAACAUUUCUCAAUGAUGAUACUCUCUG | -1.1 | -0.449 | -0.919 | -1.21
51 | UCACAGAAUGCUGUAGCCUCAAAGAUUUUGGGACUACCAACUCAAACUGUUGA | -0.508 | -0.271 | -0.508 | -0.673
52 | GAUCUAAAACCAGUC [DMSMaPseq_invitro_SARS-CoV-2_Motif_121] | -0.546 | 0.0363 | -0.0402 | -0.0985
53 | AACUGGUAAUACACUUCAGUGUAUAAUGCUAGUU | -1.89 | -0.418 | -0.966 | -1.55
